Experimental findings from patent US20190330346A1 (REMD BIOTHERAPEUTICS, published 2019) are described below.

The labels stand for the following.
B1: chimeric Fab (Fab, V domains shown)
VH: EVQLVESGGDLVKPGGSLKLSCAASGFVFSRYDMAWVRQTPEKRLEWVAFISGGGSNTYYPDTVKGRFTISRDNAKNTLYLQMTSLKSEDTAVYYCISPYYYAMEYWGQGTSVTVSS
VL: DIVMTQSHKFISTSVGDRVSITCKASQDVDTAVAWYQQKPGQSPKLLIHWASTRHTGVPDRFTGGGSGTDFTLTLSNVQSEDLADYFCQQYSTFPWTFGGGTRLEIK
notes: Crude murine-human chimeric Fab from E. coli TG1, made with the HCVR and LCVR of PD1#3; Only the variable domains are tied to it
B2: Fab 6 (Fab, V domains shown)
VH: EVQLVESGGGLVQPGGSLRLSCAASGFVFSRYDMAWVRQTPGKGLEWVAFISGGGSNTYYPDTVKGRFTISRDNSKNTLYLQMNSLRAEDTAVYYCISPYYYAMEYWGQGTTVTVSS
VL: DIQMTQSPSSISASVGDRVTITCKASQDVDTAVAWYQQKPGKSPKLLIHWASTRHTGVPSRFSGSGSGTDFTLTLSSVQPEDLADYFCQQYSTFPWTFGGGTKLEIK
notes: Crude Fab from E. coli; also called PD1-BM VL-T13A
B3: Fab 12 (Fab, V domains shown)
VH: EVQLVESGGGLVQPGGSLRLSCAASGFVFSRYDMAWVRQTPGKGLEWVAFISGGGSNTYYPDTVKGRFTISRDNSKNTLYLQMNSLRAEDTAVYYCISPYYYAMEYWGQGTTVTVSS
VL: DIQMTQSPSSISTSVGDRVTITCKASQDVDTAVAWYQQKPGKSPKLLIHWASTRHTGVPSRFSGSGSGTDFTLTLSSVQPEDLATYFCQQYSTFPWTFGGGTKLEIK
notes: Crude Fab from E. coli; also called PD1-BM VL-D85T
B4: Fab 10 (Fab, V domains shown)
VH: EVQLVESGGGLVQPGGSLRLSCAASGFVFSRYDMAWVRQTPGKGLEWVAFISGGGSNTYYPDTVKGRFTISRDNSKNTLYLQMNSLRAEDTAVYYCISPYYYAMEYWGQGTTVTVSS
VL: DIQMTQSPSSISTSVGDRVTITCKASQDVDTAVAWYQQKPGKSPKLLIHWASTRHTGVPSRFSGSGSGTDFTLTLSSLQPEDLADYFCQQYSTFPWTFGGGTKLEIK
notes: Crude Fab from E. coli; also called PD1-BM VL-V78L
B5: Fab 13 (Fab, V domains shown)
VH: EVQLVESGGGLVQPGGSLRLSCAASGFVFSRYDMAWVRQTPGKGLEWVAFISGGGSNTYYPDTVKGRFTISRDNSKNTLYLQMNSLRAEDTAVYYCISPYYYAMEYWGQGTTVTVSS
VL: DIQMTQSPSSISTSVGDRVTITCKASQDVDTAVAWYQQKPGKSPKLLIHWASTRHTGVPSRFSGSGSGTDFTLTLSSVQPEDLADYYCQQYSTFPWTFGGGTKLEIK
notes: Crude Fab from E. coli; also called PD1-BM VL-F87Y
B6: Fab 3 (Fab, V domains shown)
VH: EVQLVESGGGLVQPGGSLRLSCAASGFVFSRYDMAWVRQTPGKGLEWVAFISGGGSNTYYPDTVKGRFTISRDNSKNTLYLQMNSLRAEDTAVYYCASPYYYAMEYWGQGTTVTVSS
VL: DIQMTQSPSSISTSVGDRVTITCKASQDVDTAVAWYQQKPGKSPKLLIHWASTRHTGVPSRFSGSGSGTDFTLTLSSVQPEDLADYFCQQYSTFPWTFGGGTKLEIK
notes: Crude Fab from E. coli; also called PD1-BM VH-I97A
B7: Fab 8 (Fab, V domains shown)
VH: EVQLVESGGGLVQPGGSLRLSCAASGFVFSRYDMAWVRQTPGKGLEWVAFISGGGSNTYYPDTVKGRFTISRDNSKNTLYLQMNSLRAEDTAVYYCISPYYYAMEYWGQGTTVTVSS
VL: DIQMTQSPSSISTSVGDRVTITCKASQDVDTAVAWYQQKPGKSPKLLIYWASTRHTGVPSRFSGSGSGTDFTLTLSSVQPEDLADYFCQQYSTFPWTFGGGTKLEIK
notes: Crude Fab from E. coli; also called PD1-BM VL-H49Y
B8: Fab 11 (Fab, V domains shown)
VH: EVQLVESGGGLVQPGGSLRLSCAASGFVFSRYDMAWVRQTPGKGLEWVAFISGGGSNTYYPDTVKGRFTISRDNSKNTLYLQMNSLRAEDTAVYYCISPYYYAMEYWGQGTTVTVSS
VL: DIQMTQSPSSISTSVGDRVTITCKASQDVDTAVAWYQQKPGKSPKLLIHWASTRHTGVPSRFSGSGSGTDFTLTLSSVQPEDFADYFCQQYSTFPWTFGGGTKLEIK
notes: Crude Fab from E. coli; also called PD1-BM VL-L83F
B9: Fab 1 (Fab, V domains shown)
VH: EVQLVESGGGLVQPGGSLRLSCAASGFVFSRYDMAWVRQAPGKGLEWVAFISGGGSNTYYPDTVKGRFTISRDNSKNTLYLQMNSLRAEDTAVYYCISPYYYAMEYWGQGTTVTVSS
VL: DIQMTQSPSSISTSVGDRVTITCKASQDVDTAVAWYQQKPGKSPKLLIHWASTRHTGVPSRFSGSGSGTDFTLTLSSVQPEDLADYFCQQYSTFPWTFGGGTKLEIK
notes: Crude Fab from E. coli; also called PD1-BM VH-T40A
B10: Fab 7 (Fab, V domains shown)
VH: EVQLVESGGGLVQPGGSLRLSCAASGFVFSRYDMAWVRQTPGKGLEWVAFISGGGSNTYYPDTVKGRFTISRDNSKNTLYLQMNSLRAEDTAVYYCISPYYYAMEYWGQGTTVTVSS
VL: DIQMTQSPSSISTSVGDRVTITCKASQDVDTAVAWYQQKPGKAPKLLIHWASTRHTGVPSRFSGSGSGTDFTLTLSSVQPEDLADYFCQQYSTFPWTFGGGTKLEIK
notes: Crude Fab from E. coli; also called PD1-BM VL-S43A
B11: Fab 5 (Fab, V domains shown)
VH: EVQLVESGGGLVQPGGSLRLSCAASGFVFSRYDMAWVRQTPGKGLEWVAFISGGGSNTYYPDTVKGRFTISRDNSKNTLYLQMNSLRAEDTAVYYCISPYYYAMEYWGQGTTVTVSS
VL: DIQMTQSPSSVSTSVGDRVTITCKASQDVDTAVAWYQQKPGKSPKLLIHWASTRHTGVPSRFSGSGSGTDFTLTLSSVQPEDLADYFCQQYSTFPWTFGGGTKLEIK
notes: Crude Fab from E. coli; also called PD1-BM VL-I11V
B12: Fab 9 (Fab, V domains shown)
VH: EVQLVESGGGLVQPGGSLRLSCAASGFVFSRYDMAWVRQTPGKGLEWVAFISGGGSNTYYPDTVKGRFTISRDNSKNTLYLQMNSLRAEDTAVYYCISPYYYAMEYWGQGTTVTVSS
VL: DIQMTQSPSSISTSVGDRVTITCKASQDVDTAVAWYQQKPGKSPKLLIHWASTRHTGVPSRFSGSGSGTDFTLTISSVQPEDLADYFCQQYSTFPWTFGGGTKLEIK
notes: Crude Fab from E. coli; also called PD1-BM VL-L75I
B13: Fab 14 (Fab, V domains shown)
VH: EVQLVESGGGLVQPGGSLRLSCAASGFVFSRYDMAWVRQTPGKGLEWVAFISGGGSNTYYPDTVKGRFTISRDNSKNTLYLQMNSLRAEDTAVYYCISPYYYAMEYWGQGTTVTVSS
VL: DIQMTQSPSSISTSVGDRVTITCKASQDVDTAVAWYQQKPGKSPKLLIHWASTRHTGVPSRFSGSGSGTDFTLTLSSVQPEDLADYFCQQYSTFPWTFGGGTKVEIK
notes: Crude Fab from E. coli; also called PD1-BM VL-L104V
B14: AS05616 (Fab, V domains shown)
VH: EVQLVESGGGLVQPGGSLRLSCAASGFVFSRYDMAWVRQTPGKGLEWVSFISGGGSNTYYPDTVKGRFTISRDNSKNTLYLQMNSLRAEDTAVYYCISPYYYAMEYWGQGTTVTVSS
VL: DIQMTQSPSSISTSVGDRVTITCKASQDVDTAVAWYQQKPGKSPKLLIHWASTRHTGVPSRFSGSGSGTDFTLTISSLQPEDFADYFCQQYSTFPWTFGGGTKVEIK
notes: Humanized Fab-SASA clone from the phage library
B15: AS05614 (Fab, V domains shown)
VH: EVQLVESGGGLVQPGGSLRLSCAASGFVFSRYDMAWVRQTPGKGLEWVSFISGGGSNTYYPDTVKGRFTISRDNSKNTLYLQMNSLRAEDTAVYYCISPYYYAMEYWGQGTTVTVSS
VL: DIQMTQSPSSISTSVGDRVTITCKASQDVDTAVAWYQQKPGKSPKLLIHWASTRHTGVPSRFSGSGSGTDFTLTLSSVQPEDFATYFCQQYSTFPWTFGGGTKVEIK
notes: as for B14
B16: AS05617 (Fab) (Fab, V domains shown)
VH: EVQLVESGGGLVQPGGSLRLSCAASGFVFSRYDMAWVRQTPGKGLEWVSFISGGGSNTYYPDTVKGRFTISRDNSKNTLYLQMNSLRAEDTAVYYCISPYYYAMEYWGQGTTVTVSS
VL: DIQMTQSPSSISTSVGDRVTITCKASQDVDTAVAWYQQKPGKSPKLLIYWASTRHTGVPSRFSGSGSGTDFTLTISSLQPEDFADYFCQQYSTFPWTFGGGTKVEIK
notes: as for B14

T2 sequence (Q15116 25-170 limits assumed): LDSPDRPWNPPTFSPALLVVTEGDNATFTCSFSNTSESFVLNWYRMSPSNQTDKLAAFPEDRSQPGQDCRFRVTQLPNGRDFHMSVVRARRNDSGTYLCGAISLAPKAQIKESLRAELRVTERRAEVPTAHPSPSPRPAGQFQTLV
T1 sequence (Q15116 25-167 limits assumed): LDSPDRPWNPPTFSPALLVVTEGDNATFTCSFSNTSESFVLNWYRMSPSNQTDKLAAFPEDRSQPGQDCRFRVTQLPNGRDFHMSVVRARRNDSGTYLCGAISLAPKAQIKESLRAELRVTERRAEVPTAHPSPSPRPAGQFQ

One assay addresses T1, human PD-1 (human, UniProt Q15116 25-167).
T1 construct: The immunogen was PD1/Fc (Leu25-Gln167 fused to human IgG1 Pro100-Lys330); also called huPD-1; hPD-1
Kind of assay: SPR, multiple-cycle, crude Fab from E. coli; antigen form not stated. The source says: A homology model of mouse anti-PD1 Fv was built wherein putative back mutation sites (i.e., buried residues of the frameworks that are different in the mouse and human acceptor sequences) were identified. There were a total of 14 putative back mutation sites. A variant humanized Fab comprising all 14 of the putative back mutation sites of PD1-grafted Ab mutated back to their mouse counterparts (hereinafter identified as “PD1-BM Ab”) comprising the heavy chain variable region sequence set forth in SEQ ID NO: 38 and the light chain variable region sequence set forth in SEQ ID NO: 39, was synthesized. In addition, 14 variants of PD1-BM Ab (hereinafter identified as Fabs 1-14), each having at least one of the putative 14 back mutation sites in PD1-BM Ab mutated back to the human counterpart, were synthesized. These constructs were used to transform E. coli TG1 strain. Single colonies were pick for each individual construct and grown in E. coli medium. Crude chimeric and humanized Fabs were collected and subjected to multiple-cycle affinity estimation by Surface Plasmon Resonance (SPR).
As a reminder, the Kd is the equilibrium constant for the complex coming apart. A word on the koff: it is a measure of how fast the partners let go of each other. Higher therefore signals fast dissociation. As usually defined, the kon is a measure of how fast the partners come together. A low value points to slower complex formation. Turning to B1, the Kd is 0.5 nM, the dissociation rate constant (koff) came to 0.00015 s⁻¹ and the kon was 300000 M⁻¹ s⁻¹.

As to B2, the affinity, expressed as Kd, was 0.25 nM; the dissociation rate constant (koff) came to 9.6e-05 s⁻¹; the kon worked out at 380000 M⁻¹ s⁻¹.

Consider B3, for which the Kd turned out to be 0.28 nM, the off-rate constant (koff) stood at 9.4e-05 s⁻¹ and the kon is 330000 M⁻¹ s⁻¹.

B4: the affinity, expressed as Kd, was 0.29 nM; the off-rate constant (koff) amounted to 9.1e-05 s⁻¹; the kon is 320000 M⁻¹ s⁻¹.

Take B5: the Kd was found to be 0.29 nM, the koff came to 0.0001 s⁻¹ and the on-rate constant (kon) is 350000 M⁻¹ s⁻¹.

Regarding B6, the Kd was 1.1 nM, the dissociation rate constant (koff) was 0.00035 s⁻¹ and the on-rate (kon) was 320000 M⁻¹ s⁻¹.

The molecule B7 displayed a dissociation constant (Kd) of 0.57 nM, an off-rate (koff) of 0.00019 s⁻¹ and an on-rate constant (kon) of 340000 M⁻¹ s⁻¹.

In turn, B8 yielded a Kd of 0.72 nM, a koff of 0.00022 s⁻¹ and a kon of 300000 M⁻¹ s⁻¹.

For B9, the Kd amounted to 0.32 nM, the koff came out at 9.8e-05 s⁻¹ and the kon is 310000 M⁻¹ s⁻¹.

Regarding B10, the Kd came out at 0.59 nM, the koff is 0.00016 s⁻¹ and the association rate constant (kon) worked out at 270000 M⁻¹ s⁻¹.

Molecule B11 displayed a Kd of 0.34 nM, a koff of 0.00013 s⁻¹ and an on-rate (kon) of 370000 M⁻¹ s⁻¹.

In turn, B12 yielded a dissociation constant Kd of 0.24 nM, a koff of 8e-05 s⁻¹ and an on-rate constant (kon) of 330000 M⁻¹ s⁻¹.

For the molecule B13, the Kd turned out to be 0.68 nM, the off-rate (koff) stood at 0.0002 s⁻¹ and the kon came out at 300000 M⁻¹ s⁻¹.

Another assay addresses T2, His-tagged human PD-1 protein (human, UniProt Q15116 25-170, limits assumed).
T2 construct: SPR analyte; also called his-tagged antigen PD-1; not shown: His tag
Kind of assay: SPR; Fab-SASA captured on immobilised BSA, his-tagged PD-1 as analyte. How it is done:
For affinity ranking, BSA was immobilized onto the sensor chip using amine coupling method. The selected Fab-SASA secreted to the culture medium was injected and captured by BSA through the tight binding between BSA and SASA (capture phase). After equilibration, his-tagged antigen PD-1 was injected for 300 seconds (association phase) followed by the injection of running buffer for 900 seconds (dissociation phase). The surface was regenerated before the injection of another three Fab-SASA clones. The process was repeated until all selected Fab-SASA proteins were analyzed. Responses of reference flow cell were subtracted from those of Fab-SASA flow cells during each cycle. The antibodies were ranked by their dissociation rate constants (off-rates, […]). […]
Background: SPR reads the build-up and loss of mass on a sensor chip optically.
In turn, B14 came in with a Kd of 0.311 nM, an off-rate (koff) of 0.000105 s⁻¹ and a kon of 336000 M⁻¹ s⁻¹.

B15: binding was characterised by a dissociation constant (Kd) of 0.37 nM, the koff came out at 0.000134 s⁻¹ and the kon is 363000 M⁻¹ s⁻¹.

As to B16, binding was characterised by a dissociation constant (Kd) of 0.0854 nM, the off-rate constant (koff) was found to be 3e-05 s⁻¹ and the kon was 351000 M⁻¹ s⁻¹.
